# Reference: article PMC7954794, “Protein context shapes the specificity of SH3 domain-mediated interactions in vivo” (Nature Communications, 2021)
# B1: S. cerevisiae Abp1 (full length; SH3 domain 535-592 mutated) / Hua2 (parent)
# chain 1: MALEPIDYTTHSREIDAEYLKIVRGSDPDTTWLIISPNAKKEYEPESTGSSFHDFLQLFDETKVQYGLARVSPPGSDVEKIIIIGWCPDSAPLKTRASFAANFAAVANNLFKGYHVQVTARDEDDLDENELLMKISNAAGARYSIQTSSKQQGKASTPPVKKSFTPSKSPAPVSKKEPVKTPSPAPAAKISSRVNDNNDDDDWNEPELKERDFDQAPLKPNQSSYKPIGKIDLQKVIAEEKAKEDPRLVQKPTAAGSKIDPSSDIANLKNESKLKRDSEFNSFLGTTKPPSMTESSLKNDDDKVIKGFRNEKSPAQLWAERKAKQNSGNAETKAEAPKPEVPEDEPEGEPDVKDLKSKFEGLAASEKEEEEMENKFAPPPKKSEPTIISPKPFSKPQEPVKAEEAEQPKTDYKKIGNPLPGMHIEADNEEEPEENDDDWDDDEDEAAQPPLPSRNVASGAPVQKEEPEQEEIAPSLPSRNSIPAPKQEEAPEQAPEEEIEEEAEEAAPQLPSRSSAAPPPPPRRATPEKKPKENPWATAEYDYDAAEDNELTFVENDKIINIEFVDDDWWLGELEKDGSKGLFPSNYVSLGN
# chain 2: MQQTKFGKMYLDHDSVVEYSEDEIVEADRITLGYKKRLSMIENQMRHLLEDFSLDVQQIEPILADLQKYYDAFLQLLQKRNKSLQCKRSTHQPVPSPMNSQTSTNAKVNLSGKLMKFQLNSVQKFDEENILRILQNKIEFEHYFQIDKGKKQKVLLLAVYQCLNGPTRLHKVLNIEGIIHNNSIRTILGKQVSSSKWTVFLYDVKLVLLAHRQDVPNLETSKMIVRYGDLFPCALYFKDHTAY
# Variants of: B1
# Assay: DHFR protein-fragment complementation in yeast (Abp1-DHFR F[1,2] x partner-DHFR F[3]), deep mutational scanning, second methotrexate selection vs reference
# Settings: with Hua2; S. cerevisiae, DHFR-PCA selection in liquid with methotrexate at 30 C, two 72 h selections (the score uses the second); reference = the pre-selection culture; not an affinity; value at the no-binding floor (a bound); scale: DMS score: mean over two replicates of log2(f_test/f_ref + 0.5)/ln 2, minus the synonymous-codon median
row,Variant,screen value
1,chain 1 MALEPIDYTTHSREIDAEYLKIVRGSDPDTTWLIISPNAKKEYEPESTGSSFHDFLQLFDETKVQYGLARVSPPGSDVEKIIIIGWCPDSAPLKTRASFAANFAAVANNLFKGYHVQVTARDEDDLDENELLMKISNAAGARYSIQTSSKQQGKASTPPVKKSFTPSKSPAPVSKKEPVKTPSPAPAAKISSRVNDNNDDDDWNEPELKERDFDQAPLKPNQSSYKPIGKIDLQKVIAEEKAKEDPRLVQKPTAAGSKIDPSSDIANLKNESKLKRDSEFNSFLGTTKPPSMTESSLKNDDDKVIKGFRNEKSPAQLWAERKAKQNSGNAETKAEAPKPEVPEDEPEGEPDVKDLKSKFEGLAASEKEEEEMENKFAPPPKKSEPTIISPKPFSKPQEPVKAEEAEQPKTDYKKIGNPLPGMHIEADNEEEPEENDDDWDDDEDEAAQPPLPSRNVASGAPVQKEEPEQEEIAPSLPSRNSIPAPKQEEAPEQAPEEEIEEEAEEAAPQLPSRSSAAPPPPPRRATPEKKPKENPWATAEYDYDAAEDNELTKVENDKIINIEFVDDDWWLGELEKDGSKGLFPSNYVSLGN [chain 1 F553K],< -3.06
2,chain 1 MALEPIDYTTHSREIDAEYLKIVRGSDPDTTWLIISPNAKKEYEPESTGSSFHDFLQLFDETKVQYGLARVSPPGSDVEKIIIIGWCPDSAPLKTRASFAANFAAVANNLFKGYHVQVTARDEDDLDENELLMKISNAAGARYSIQTSSKQQGKASTPPVKKSFTPSKSPAPVSKKEPVKTPSPAPAAKISSRVNDNNDDDDWNEPELKERDFDQAPLKPNQSSYKPIGKIDLQKVIAEEKAKEDPRLVQKPTAAGSKIDPSSDIANLKNESKLKRDSEFNSFLGTTKPPSMTESSLKNDDDKVIKGFRNEKSPAQLWAERKAKQNSGNAETKAEAPKPEVPEDEPEGEPDVKDLKSKFEGLAASEKEEEEMENKFAPPPKKSEPTIISPKPFSKPQEPVKAEEAEQPKTDYKKIGNPLPGMHIEADNEEEPEENDDDWDDDEDEAAQPPLPSRNVASGAPVQKEEPEQEEIAPSLPSRNSIPAPKQEEAPEQAPEEEIEEEAEEAAPQLPSRSSAAPPPPPRRATPEKKPKENPWATAEYDYDAAEDNELTWVENDKIINIEFVDDDWWLGELEKDGSKGLFPSNYVSLGN [chain 1 F553W],< -3.06
3,chain 1 MALEPIDYTTHSREIDAEYLKIVRGSDPDTTWLIISPNAKKEYEPESTGSSFHDFLQLFDETKVQYGLARVSPPGSDVEKIIIIGWCPDSAPLKTRASFAANFAAVANNLFKGYHVQVTARDEDDLDENELLMKISNAAGARYSIQTSSKQQGKASTPPVKKSFTPSKSPAPVSKKEPVKTPSPAPAAKISSRVNDNNDDDDWNEPELKERDFDQAPLKPNQSSYKPIGKIDLQKVIAEEKAKEDPRLVQKPTAAGSKIDPSSDIANLKNESKLKRDSEFNSFLGTTKPPSMTESSLKNDDDKVIKGFRNEKSPAQLWAERKAKQNSGNAETKAEAPKPEVPEDEPEGEPDVKDLKSKFEGLAASEKEEEEMENKFAPPPKKSEPTIISPKPFSKPQEPVKAEEAEQPKTDYKKIGNPLPGMHIEADNEEEPEENDDDWDDDEDEAAQPPLPSRNVASGAPVQKEEPEQEEIAPSLPSRNSIPAPKQEEAPEQAPEEEIEEEAEEAAPQLPSRSSAAPPPPPRRATPEKKPKENPWATAEYDYDAAEDNELTRVENDKIINIEFVDDDWWLGELEKDGSKGLFPSNYVSLGN [chain 1 F553R],< -3.06
4,chain 1 MALEPIDYTTHSREIDAEYLKIVRGSDPDTTWLIISPNAKKEYEPESTGSSFHDFLQLFDETKVQYGLARVSPPGSDVEKIIIIGWCPDSAPLKTRASFAANFAAVANNLFKGYHVQVTARDEDDLDENELLMKISNAAGARYSIQTSSKQQGKASTPPVKKSFTPSKSPAPVSKKEPVKTPSPAPAAKISSRVNDNNDDDDWNEPELKERDFDQAPLKPNQSSYKPIGKIDLQKVIAEEKAKEDPRLVQKPTAAGSKIDPSSDIANLKNESKLKRDSEFNSFLGTTKPPSMTESSLKNDDDKVIKGFRNEKSPAQLWAERKAKQNSGNAETKAEAPKPEVPEDEPEGEPDVKDLKSKFEGLAASEKEEEEMENKFAPPPKKSEPTIISPKPFSKPQEPVKAEEAEQPKTDYKKIGNPLPGMHIEADNEEEPEENDDDWDDDEDEAAQPPLPSRNVASGAPVQKEEPEQEEIAPSLPSRNSIPAPKQEEAPEQAPEEEIEEEAEEAAPQLPSRSSAAPPPPPRRATPEKKPKENPWATAEYDYDAAEDNELTQVENDKIINIEFVDDDWWLGELEKDGSKGLFPSNYVSLGN [chain 1 F553Q],< -3.06
5,chain 1 MALEPIDYTTHSREIDAEYLKIVRGSDPDTTWLIISPNAKKEYEPESTGSSFHDFLQLFDETKVQYGLARVSPPGSDVEKIIIIGWCPDSAPLKTRASFAANFAAVANNLFKGYHVQVTARDEDDLDENELLMKISNAAGARYSIQTSSKQQGKASTPPVKKSFTPSKSPAPVSKKEPVKTPSPAPAAKISSRVNDNNDDDDWNEPELKERDFDQAPLKPNQSSYKPIGKIDLQKVIAEEKAKEDPRLVQKPTAAGSKIDPSSDIANLKNESKLKRDSEFNSFLGTTKPPSMTESSLKNDDDKVIKGFRNEKSPAQLWAERKAKQNSGNAETKAEAPKPEVPEDEPEGEPDVKDLKSKFEGLAASEKEEEEMENKFAPPPKKSEPTIISPKPFSKPQEPVKAEEAEQPKTDYKKIGNPLPGMHIEADNEEEPEENDDDWDDDEDEAAQPPLPSRNVASGAPVQKEEPEQEEIAPSLPSRNSIPAPKQEEAPEQAPEEEIEEEAEEAAPQLPSRSSAAPPPPPRRATPEKKPKENPWATAEYDYDAAEDNELTPVENDKIINIEFVDDDWWLGELEKDGSKGLFPSNYVSLGN [chain 1 F553P],< -3.06
6,chain 1 MALEPIDYTTHSREIDAEYLKIVRGSDPDTTWLIISPNAKKEYEPESTGSSFHDFLQLFDETKVQYGLARVSPPGSDVEKIIIIGWCPDSAPLKTRASFAANFAAVANNLFKGYHVQVTARDEDDLDENELLMKISNAAGARYSIQTSSKQQGKASTPPVKKSFTPSKSPAPVSKKEPVKTPSPAPAAKISSRVNDNNDDDDWNEPELKERDFDQAPLKPNQSSYKPIGKIDLQKVIAEEKAKEDPRLVQKPTAAGSKIDPSSDIANLKNESKLKRDSEFNSFLGTTKPPSMTESSLKNDDDKVIKGFRNEKSPAQLWAERKAKQNSGNAETKAEAPKPEVPEDEPEGEPDVKDLKSKFEGLAASEKEEEEMENKFAPPPKKSEPTIISPKPFSKPQEPVKAEEAEQPKTDYKKIGNPLPGMHIEADNEEEPEENDDDWDDDEDEAAQPPLPSRNVASGAPVQKEEPEQEEIAPSLPSRNSIPAPKQEEAPEQAPEEEIEEEAEEAAPQLPSRSSAAPPPPPRRATPEKKPKENPWATAEYDYDAAEDNELTFVENDKIINIEFVDDDWWLGELEKDGSKGLAPSNYVSLGN [chain 1 F583A],< -3.06

# More lines, now with the values ahead:
row,screen value,Variant
1,< -3.06,chain 1 MALEPIDYTTHSREIDAEYLKIVRGSDPDTTWLIISPNAKKEYEPESTGSSFHDFLQLFDETKVQYGLARVSPPGSDVEKIIIIGWCPDSAPLKTRASFAANFAAVANNLFKGYHVQVTARDEDDLDENELLMKISNAAGARYSIQTSSKQQGKASTPPVKKSFTPSKSPAPVSKKEPVKTPSPAPAAKISSRVNDNNDDDDWNEPELKERDFDQAPLKPNQSSYKPIGKIDLQKVIAEEKAKEDPRLVQKPTAAGSKIDPSSDIANLKNESKLKRDSEFNSFLGTTKPPSMTESSLKNDDDKVIKGFRNEKSPAQLWAERKAKQNSGNAETKAEAPKPEVPEDEPEGEPDVKDLKSKFEGLAASEKEEEEMENKFAPPPKKSEPTIISPKPFSKPQEPVKAEEAEQPKTDYKKIGNPLPGMHIEADNEEEPEENDDDWDDDEDEAAQPPLPSRNVASGAPVQKEEPEQEEIAPSLPSRNSIPAPKQEEAPEQAPEEEIEEEAEEAAPQLPSRSSAAPPPPPRRATPEKKPKENPWATAEYDYDAAEDNELTNVENDKIINIEFVDDDWWLGELEKDGSKGLFPSNYVSLGN [chain 1 F553N]
2,< -3.06,chain 1 MALEPIDYTTHSREIDAEYLKIVRGSDPDTTWLIISPNAKKEYEPESTGSSFHDFLQLFDETKVQYGLARVSPPGSDVEKIIIIGWCPDSAPLKTRASFAANFAAVANNLFKGYHVQVTARDEDDLDENELLMKISNAAGARYSIQTSSKQQGKASTPPVKKSFTPSKSPAPVSKKEPVKTPSPAPAAKISSRVNDNNDDDDWNEPELKERDFDQAPLKPNQSSYKPIGKIDLQKVIAEEKAKEDPRLVQKPTAAGSKIDPSSDIANLKNESKLKRDSEFNSFLGTTKPPSMTESSLKNDDDKVIKGFRNEKSPAQLWAERKAKQNSGNAETKAEAPKPEVPEDEPEGEPDVKDLKSKFEGLAASEKEEEEMENKFAPPPKKSEPTIISPKPFSKPQEPVKAEEAEQPKTDYKKIGNPLPGMHIEADNEEEPEENDDDWDDDEDEAAQPPLPSRNVASGAPVQKEEPEQEEIAPSLPSRNSIPAPKQEEAPEQAPEEEIEEEAEEAAPQLPSRSSAAPPPPPRRATPEKKPKENPWATAEYDYDAAEDNELTHVENDKIINIEFVDDDWWLGELEKDGSKGLFPSNYVSLGN [chain 1 F553H]
3,-3.01,chain 1 MALEPIDYTTHSREIDAEYLKIVRGSDPDTTWLIISPNAKKEYEPESTGSSFHDFLQLFDETKVQYGLARVSPPGSDVEKIIIIGWCPDSAPLKTRASFAANFAAVANNLFKGYHVQVTARDEDDLDENELLMKISNAAGARYSIQTSSKQQGKASTPPVKKSFTPSKSPAPVSKKEPVKTPSPAPAAKISSRVNDNNDDDDWNEPELKERDFDQAPLKPNQSSYKPIGKIDLQKVIAEEKAKEDPRLVQKPTAAGSKIDPSSDIANLKNESKLKRDSEFNSFLGTTKPPSMTESSLKNDDDKVIKGFRNEKSPAQLWAERKAKQNSGNAETKAEAPKPEVPEDEPEGEPDVKDLKSKFEGLAASEKEEEEMENKFAPPPKKSEPTIISPKPFSKPQEPVKAEEAEQPKTDYKKIGNPLPGMHIEADNEEEPEENDDDWDDDEDEAAQPPLPSRNVASGAPVQKEEPEQEEIAPSLPSRNSIPAPKQEEAPEQAPEEEIEEEAEEAAPQLPSRSSAAPPPPPRRATPEKKPKENPWATAEYDYDAAEDNELTTVENDKIINIEFVDDDWWLGELEKDGSKGLFPSNYVSLGN [chain 1 F553T]
4,-3.04,chain 1 MALEPIDYTTHSREIDAEYLKIVRGSDPDTTWLIISPNAKKEYEPESTGSSFHDFLQLFDETKVQYGLARVSPPGSDVEKIIIIGWCPDSAPLKTRASFAANFAAVANNLFKGYHVQVTARDEDDLDENELLMKISNAAGARYSIQTSSKQQGKASTPPVKKSFTPSKSPAPVSKKEPVKTPSPAPAAKISSRVNDNNDDDDWNEPELKERDFDQAPLKPNQSSYKPIGKIDLQKVIAEEKAKEDPRLVQKPTAAGSKIDPSSDIANLKNESKLKRDSEFNSFLGTTKPPSMTESSLKNDDDKVIKGFRNEKSPAQLWAERKAKQNSGNAETKAEAPKPEVPEDEPEGEPDVKDLKSKFEGLAASEKEEEEMENKFAPPPKKSEPTIISPKPFSKPQEPVKAEEAEQPKTDYKKIGNPLPGMHIEADNEEEPEENDDDWDDDEDEAAQPPLPSRNVASGAPVQKEEPEQEEIAPSLPSRNSIPAPKQEEAPEQAPEEEIEEEAEEAAPQLPSRSSAAPPPPPRRATPEKKPKENPWATAEYDYDAAEDNELTGVENDKIINIEFVDDDWWLGELEKDGSKGLFPSNYVSLGN [chain 1 F553G]
